Test results taken from patent US20260109774A1 (JUNO THERAPEUTICS, published 2026).
Positions count from the first letter of the chain named.

T1: human B-cell maturation antigen (BCMA) on cells (human, UniProt Q02223 1-184)
T1 construct: Recombinant on HEK293 or K562 cells, or endogenous on cell lines (H929, RPMI 8226, OPM2, MM1S, Daudi); also called hBCMA; huBCMA
T1 chain: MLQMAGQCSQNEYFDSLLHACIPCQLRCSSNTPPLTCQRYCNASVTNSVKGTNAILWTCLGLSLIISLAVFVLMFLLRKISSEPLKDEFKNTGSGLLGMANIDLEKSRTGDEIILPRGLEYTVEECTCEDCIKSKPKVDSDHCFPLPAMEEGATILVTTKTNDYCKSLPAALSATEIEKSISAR

B1: BCMA-18 scFv (scFv)
scFv: EVQLLESGGGLVQPGGSLRLSCAASGFTFSSYWMSWHRQAPGKGPEWVAHINQDGSEKYYVDSVKGRFTISRDNAESSLYLQMNSLRAEDTAVYYCARWLAVTNWGQGTLVTVSSGGGGSGGGGSGGGGSQSVLTQPPSASGTPGQRVTISCSGSGSNIGSNDVSWYQQIPGTAPKLLIYWNDQRPSGVPDRFSGSKSGTSASLAISGLRSEDEADYYCAAWDDSLNGWVFGGGTKLTVL
B2: BCMA-4 scFv (scFv)
scFv: QVQLVQSGGGLVQPGRSLRLSCTASGFTFGDYAMSWFRQAPGKGLEWVGFIRSKAYGGTTEYAASVKGRFTISRDDSKSIAYLQMNSLKTEDTAVYYCAAWSAPTDYWGQGTLVTVSSGGGGSGGGGSGGGGSAIRMTQSPSSLSASLGDRVTITCRASQDIRNSLAWYQQRPGKAPKLLLSAASRLESGVPSRFSGTTSGAEYALSISSLQPEDVASYFCQQYYSLPLSFGGGTKVEIK
B3: BCMA-11 scFv (scFv)
scFv: QVQLVQSGGGLVQPGRSLRLSCAASGFTFDDYAMHWVRRAPGKGLEWVSGISWNSGSIGYADSVKGRFTISRDNAKNSLYLQMNSLRAEDTAVYYCARDLGPDYDPDAFDIWGQGTMVTVSSGGGGSGGGGSGGGGSQLVLTQPPSASGTPGQRVTISCSGSSSNIGSNAVNWYQQLPGTAPEVLIYNSHQRPSGVPDRFSGSKSGTSASLAINGLQSEDEADYYCAAWDDSLRGYVFGTGTKLTVL
B4: BCMA-22 scFv (scFv)
scFv: EVQLVESGGGLVKPGGSLRLSCAASGFTFSDYYMSWIRQAPGKGLEWVSYISSSGSTIYYADSVKGRFTISRDNAKNSLYLQMNSLRAEDTAVYYCAKVDGDYTEDYWGQGTLVTVSSGGGGSGGGGSGGGGSQSALTQPASVSGSPGQSITISCTGSSSDVGKYNLVSWYQQPPGKAPKLIIYDVNKRPSGVSNRFSGSKSGNTATLTISGLQGDDEADYYCCSYGGSRSYVFGTGTKVTVL
B5: BCMA-40 scFv (scFv)
scFv: B4 scFv with G163S, V240L
B6: BCMA-32 scFv (scFv)
scFv: QVQLVESGGGLVKPGGSLRLSCAASGFTFSDYYMSWIRQAPGKGLEWVSYISSSGSTIYYADSVKGRFTISRDNAKNSLYLQMNSLRAEDTAVYYCAKVDGPPSFDIWGQGTMVTVSSGGGGSGGGGSGGGGSQTVVTQPPSVSVAPGQTARITCGGNNIGSKGVHWYRQRPGQAPEVVIYDDSDRPSGVPDRFSGSNSGNTATLTVRGVEAGDEADYYCQVWDSSSDHWVFGGGTKLTVL
B7: BCMA-8 scFv (scFv)
scFv: QVQLVQSGGGLVQPGRSLRLSCTASGFTFGDYAMSWFRQAPGKGLEWVGFIRSKAYGGTTEYAASVKGRFTISRDDSKSIAYLQMNSLKTEDTAVYYCAAWSAPTDYWGQGTLVTVSSGGGGSGGGGSGGGGSDIVMTQSPDSLAVSLGERATINCKSSQSVLYSSNNKNYLAWYQQKPGQPPKLLIYWASTRESGVPDRFSGSGSGTDFTLTISSLQAEDVAVYYCQQYYSTPYTFGQGTKLEIK
B8: BCMA-31 scFv (scFv)
scFv: B7 scFv with Q1E, I135V, N155S, Y164N, L172V, Q176K, L186V, Y188S, E244D
B9: BCMA-3 scFv (scFv)
scFv: B7 scFv with A145V, Y164H, S232T, Y235L, Q239G, L243V
B10: BCMA-44 scFv (scFv)
scFv: B7 scFv with Q1E, I135V, S161N, V162L, T233S
B11: BCMA-46 scFv (scFv)
scFv: B7 scFv with A145V, Y164H, S232T, Y235L, Q239G, L243V
B12: BCMA-24 scFv (scFv)
scFv: EVQLVQSGGGLVKPGGSLRLSCAASGFTFSDYYMSWIRQAPGKGLEWVSGISWNSGSIGYADSVKGRFTISRDNAKNSLYLQMNSLRAEDTAVYYCARDLGPPYGDDAFDIWGQGTMVTVSSGGGGSGGGGSGGGGSDIVMTQSPDSLAVSLGERATINCKSSQSVLYSSNNKNYLAWYQQKPGQPPKLLIYWGSTRESGVPDRFSGSGSGTDFTLTISSLQAEDVAIYHCQQYISLPWTFGQGTKVEIK
B13: BCMA-12 scFv (scFv)
scFv: EVQLVESGGGLVKPGGSLRLSCAASGFTFSDYYMSWIRQAPGKGLEWVSYISSSGSTIYYADSVKGRFTISRDNAKNSLYLQMNSLRAEDTAVYYCAKVDGPPSFDIWGQGTMVTVSSGGGGSGGGGSGGGGSQSALTQPPSVSAAPGQKVTISCSGSRSNIGNNYVSWYQQLPGTAPKLLIYDNAKRPSGIPDRFSGSKSGTSATLDIAGLQTGDEADYYCQVWDSSSDHWVFGGGTKLTVL
B14: BCMA-17 scFv (scFv)
scFv: QVQLVQSGGGLVKPGGSLRLSCAASGFTFSDYYMSWIRLAPGKGLEWVSYISSSGSTIYYADSVKGRFTISRDNAKNSLYLQMNSLRAEDTAVYYCAREADSSADYWGQGTLVNVSSGGGGSGGGGSGGGGSQPVLTQPPSVSVAPGKTAMITCGGNNIGFKGVQWYQQKTGQAPVLVVYDDSDRPSGIPERFSGSNSGNTATLTISRVEAGDEADYYCQVWDSASDHWVFGGGTKLTVL
B15: BCMA-33 scFv (scFv)
scFv: B14 scFv with L39Q, S53G
B16: BCMA-2 scFv (scFv)
scFv: EVQLVESGGGLVKPGGSLRLSCAASGFTFSDYYMSWIRQAPGKGLEWVSYISSSGSTIYYADSVKGRFTISRDNAKNSLYLQMNSLRAEDTAVYYCAKVDGPPSSDIWGQGTMVTVSSGGGGSGGGGSGGGGSEIVMTQSPATLSVSPGETATLSCRASQSIKTNLAWYQQKPGQAPRLLIYAASTRATGIPDRFSGSGSGTDFTLTITRLEPEDFAVYYCQQYGSSPTFGRGTKLEIK
B17: BCMA-6 scFv (scFv)
scFv: QVQLVQSGGGLVQPGRSLRLSCTASGFTFGDYAMSWFRQAPGKGLEWVGFIRSKAYGGTTEYAASVKGRFTISRDDSKSIAYLQMNSLKTEDTAVYYCAAWSAPTDYWGQGTLVTVSSGGGGSGGGGSGGGGSDIVMTQSPSSLSVSVGERVTITCRASQSISNSLAWYKQRPGEAPKLLIHAASNVEDGVPSRFSGRGSGTVFTLAISNVQPEDFATYYCQQSHMYPPTFGGGTKVEIK
B18: BCMA-21 scFv (scFv)
scFv: EVQLVESGGGLVKPGGSLKLSCAASGFTFSDYYMSWIRQAPGKGLEWVSYISSSGSTIYYADSVKGRFTISRDNAKNSLYLQMNSLRAEDTAVYYCAKVDGGYTEDYWGQGTLVTVSSGGGGSGGGGSGGGGSQSVLTQPPSASGTPGQRVTISCSGSGSNIGSNDVSWYQQIPGTAPKLLIYWNDQRPSGVPDRFSGSKSGISASLAISGLRSEDEADYYCAAWDDSLNGYVFGTGTKVTVL
B19: BCMA-15 scFv (scFv)
scFv: QVQLLESGGGLVKPGGSLRLSCAASGFTFSSYGMHWVRQAPGKGLEWVAVISYDGSNKYYADSVKGRFTISRDNSKNTLYLQMNSLRAEDTAVYYCAKDQYSSSAQRADFDYWGQGTLVTVSSGGGGSGGGGSGGGGSQSVLTQPPSASGTPGQRVTISCSGSGSNIGSNDVSWYQQIPGTAPKLLIYWNDQRPSGVPDRFSGSKSGTSASLVISGLRSEDEADYYCAAWDDSLSGWVFGGGTKLTVL
B20: BCMA-34 scFv (scFv)
scFv: TGQLVQSGGGLVQPGRSLRLSCAASGFTFDDYAMHWVRQAPGKGLEWVSGISWNSGSIGYADSVKGRFTISRDNAKNSLYLQMNSLRAEDTAVYYCARDLGPDYDPDAFDIWGQGTMVTVSSGGGGSGGGGSGGGGSEIVMTQSPATLSLSPGDRATLSCRASQSISNYLAWYQQKPGQAPRLLIYDASNRATGIPARFSGSGSGTDFTLTISSLEPEDFAVYYCQQRSNWPPYTFGQGTKLDIK
B21: BCMA-16 scFv (scFv)
scFv: EVQLVQSGPEVKKPGTSVKVSCKASGFTFTSSAMQWVRQARGQRLEWIGWIVVGSGNTNYAQKFQERVTITRDMSTSTAYMELSSLRSEDTAVYYCAAAPYYDILTGYYLWGQGTLVTVSSGGGGSGGGGSGGGGSQSALTQPPSASGTPGQRVTISCSGSGSNIGSNDVSWYQQIPGTAPKLLIYWNDQRPSGVPDRFSGSKSGTSASLAISGLQSEDEADYYCASWDDSLSGWVFGGGTKLTVL
B22: BCMA-7 scFv (scFv)
scFv: QVQLVQSGGGLVQPGRSLRLSCTASGFTFGDYAMSWFRQAPGKGLEWVGFIRSKAYGGTTEYAASVKGRFTISRDDSKSIAYLQMNSLKTEDTAVYYCAAWSAPTDYWGQGTLVTVSSGGGGSGGGGSGGGGSVIQLTQSPSSLSASVGDRVTITCRASQDIGDYLAWFQQRPGKAPKSLIYVASTLQSGVPSRFSGSGSGTHFTLTINSLQPEDFATYYCQQYHSHPWTFGPGTKVDIK

Molecular target: T1, human B-cell maturation antigen (BCMA) …
Assay: flow cytometry on BCMA-expressing HEK293 cells vs control cells, crude lysate or bacterial supernatant; clone listed in Table E2
Description: Specific binding of resulting scFv clones to BCMA-expressing HEK293 cells, as compared to control cells not expressing BCMA, was assessed by flow cytometry either with in vitro translated crude cell lysate or with bacterially-produced supernatant.

Binding result, binds:
B1
B2
B3
B4
B5
B6
B7
B8
B9
B10
B11
B12
B13
B14
B15
B16
B17
B18
B19
B20
B21
B22
